The text below walks through data of article PMC5537072, “Anthranilate phosphoribosyltransferase from the hyperthermophilic archaeon Thermococcus kodakarensis shows maximum activity with zinc and forms a unique dimeric structure” (FEBS Open Bio, 2017).

As a reminder, the Km is the substrate concentration at which the rate is half of its maximum.

The subject of one series is Nc1ccccc1C(=O)O. Nature of the series: purified protein. The format is biochemical, Thermococcus kodakarensis. The conditions noted are these: 1 mM PRPP, 100 μM ZnCl2, 100 mM Tris/HCl pH 8.5, 55 °C.
Substrate in the series “purified protein”: O=P(O)(O)OC[C@H]1O[C@H](OP(=O)(O)OP(=O)(O)O)[C@H](O)[C@@H]1O
Briefly: purified protein. The format is biochemical, Thermococcus kodakarensis. The conditions noted are these: 4 μM anthranilate, 100 μM ZnCl2, 100 mM Tris/HCl pH 8.5, 55 °C.

On to TkTrpD (Thermococcus kodakarensis KOD1), for which the Michaelis constant (Km) in the series with Nc1ccccc1C(=O)O came out at 2.2 µM.

B1: TkTrpD (Thermococcus kodakarensis KOD1) (protein)
chain: MSLLAKIVDGKNLSFEEAYELFNELKGSDGVLIGAYLAALQTKGYTGEELAGLARAMRDSAVKLDLGKVADTAGTGGDGSSTINVSTASALILSAFTRVAKHGNVSITSKSGSANVLEALGLNIRVSPERAREMVESTNFTFIFAPAYHPALRPIMPVRKALGIKTVFNVIGPLANPADPAYQVVGVNSPELLEPVAEALEFLGVERALVVHGSGMDEVSPHRETLVLEVGNGVERYTLSPEDFGIEPVKPLPCSSPEESAARIKAVLGGSGRREDRDFILVNASAALYASGVAEDFREGLEMAREALGQGMLEKLEEIACLSKS
notes: homodimer
With B1, in the series “purified protein”, the Km is 250 µM.
